Test results published in patent US20260035468A1 (INSTITUT NATIONAL DE LA SANT ET DE LA RECHERCHE M DICALE, published 2026).

Molecular target: T1, β8 chain of αvβ8 integrin (Itgβ8) expressed on human tumor Treg cells (human, UniProt P26012 43-769; P06756 31-1048)
T1 construct: whole, on cells; also called Itgb8 chain on human Treg cells; human Itgβ8
Experiment: staining of cells of one fresh human colonic tumor (data not shown)

T1 sequence (P26012 43-769, chain 1 of 2): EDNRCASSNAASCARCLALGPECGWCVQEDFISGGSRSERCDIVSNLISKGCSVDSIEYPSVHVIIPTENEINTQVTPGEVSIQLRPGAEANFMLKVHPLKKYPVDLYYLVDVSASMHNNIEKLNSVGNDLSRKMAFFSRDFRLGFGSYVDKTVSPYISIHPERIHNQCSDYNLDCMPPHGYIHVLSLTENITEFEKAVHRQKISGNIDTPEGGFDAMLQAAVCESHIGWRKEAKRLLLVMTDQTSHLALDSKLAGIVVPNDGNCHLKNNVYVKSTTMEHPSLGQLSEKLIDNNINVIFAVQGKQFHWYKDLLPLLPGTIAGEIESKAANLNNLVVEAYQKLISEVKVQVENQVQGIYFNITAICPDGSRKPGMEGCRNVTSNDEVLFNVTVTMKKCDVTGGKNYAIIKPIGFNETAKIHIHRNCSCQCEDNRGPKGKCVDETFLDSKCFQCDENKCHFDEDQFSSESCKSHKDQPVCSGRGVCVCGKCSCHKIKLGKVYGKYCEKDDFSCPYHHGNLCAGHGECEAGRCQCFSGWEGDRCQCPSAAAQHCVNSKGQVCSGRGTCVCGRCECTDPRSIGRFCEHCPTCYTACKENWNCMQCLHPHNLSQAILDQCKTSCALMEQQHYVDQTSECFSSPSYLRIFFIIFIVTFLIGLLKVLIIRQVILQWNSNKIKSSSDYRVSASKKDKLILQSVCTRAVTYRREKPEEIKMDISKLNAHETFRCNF
T1 sequence (P06756 31-1048, chain 2 of 2): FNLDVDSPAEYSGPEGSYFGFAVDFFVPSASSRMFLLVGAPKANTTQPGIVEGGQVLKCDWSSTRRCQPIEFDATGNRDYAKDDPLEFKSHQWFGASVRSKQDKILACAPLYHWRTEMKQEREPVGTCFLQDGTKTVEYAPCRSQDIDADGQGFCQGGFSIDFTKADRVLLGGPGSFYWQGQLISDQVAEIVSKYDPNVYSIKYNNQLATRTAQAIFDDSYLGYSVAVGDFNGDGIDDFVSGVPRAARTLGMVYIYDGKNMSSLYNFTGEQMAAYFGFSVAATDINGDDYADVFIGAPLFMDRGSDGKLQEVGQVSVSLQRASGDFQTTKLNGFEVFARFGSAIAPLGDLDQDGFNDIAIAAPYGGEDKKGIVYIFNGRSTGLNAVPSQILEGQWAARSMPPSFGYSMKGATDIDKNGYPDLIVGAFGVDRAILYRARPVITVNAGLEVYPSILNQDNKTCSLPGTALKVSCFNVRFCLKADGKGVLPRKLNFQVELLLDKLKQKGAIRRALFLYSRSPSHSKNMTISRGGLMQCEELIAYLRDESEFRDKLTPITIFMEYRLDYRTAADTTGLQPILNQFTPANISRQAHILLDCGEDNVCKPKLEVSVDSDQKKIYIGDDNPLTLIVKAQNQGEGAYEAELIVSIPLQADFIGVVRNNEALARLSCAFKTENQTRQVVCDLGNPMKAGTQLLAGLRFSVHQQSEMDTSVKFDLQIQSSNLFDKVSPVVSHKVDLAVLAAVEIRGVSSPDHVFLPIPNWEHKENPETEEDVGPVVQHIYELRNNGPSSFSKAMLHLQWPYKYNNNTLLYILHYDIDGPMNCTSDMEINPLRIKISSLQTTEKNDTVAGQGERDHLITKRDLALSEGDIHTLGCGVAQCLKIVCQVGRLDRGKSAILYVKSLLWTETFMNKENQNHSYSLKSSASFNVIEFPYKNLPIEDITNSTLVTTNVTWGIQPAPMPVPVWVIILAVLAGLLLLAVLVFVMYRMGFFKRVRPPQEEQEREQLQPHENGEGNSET

B1: Mab 1G10G4 (antibody, V domains shown)
VH: QVQLQQSGAELARPGASVKMSCKASGYTFTSYTMHWVKQRPGQGLEWIGYINPSSGYTKYNQKFKDKATLTADKSSSTAYMQLSSLTSEDSAVYYCARAEGLRAWFAYWGQGTLVTVSA
VL: DIVMTQSQKFMSTSVGDRVSVTCKASQNVGTNVAWYQQKPGQSPKALIYSASYRYSGVPDHFTGSGSGTDFTLTIINVQSEDLAEYFCQQYNSYPYTFGGGTKLEIK
notes: Mouse hybridoma antibody tested as clone supernatant; also called 1G10G4 mAb; clone 3
B1: binds.

B2: Mab 9B2 (antibody, V domains shown)
VH: QVQLQQSGAELAKPGASVKLSCKASGYTFTRYWMHWVKQRPGQGLEWIGHINPSSGYTKYNQKFKDKATLTADKSSSTAYMQLSSLTYEDSAVYYCAREVYYYGSSYGDFDYWGQGTTLTVSS
VL: QIVLTQSPAIMSASPGEKVTISCSASSSVSYMYWYQQKPGSSPKPWIYRTSNLASGVPARFSGSGSGTSYSLTISSMEAEDAATYYCQQYHSYPLTFGAGTKLELK
notes: Mouse hybridoma antibody tested as clone supernatant; also called 9B2 mAb; clone 1
B2: binds.
